Assay results published in publication PMC7186457.

What was measured:
[1] = biological target: FLAG-L4 (ribosomal protein L4) (Escherichia coli (expressed in BL21(DE3) rne131)) (UniProt P60723); experiment: competition; details: EMSA: 30 C, 20 min, native 5% PAGE, ~2 ng RNA, 0.7-5.5 uM L4, buffer not given (cited method); footprinting: room temperature (25 C), RNase V1 in 1x RNA …
[2] = tested on: FLAG-L4 (ribosomal protein L4) (Escherichia coli (expressed in BL21(DE3) rne131)); experiment: EMSA; details: EMSA: 30 C, 20 min, native 5% PAGE, ~2 ng RNA, 0.7-5.5 uM L4, buffer not given (cited method); footprinting: room temperature (25 C), RNase V1 in 1x RNA …

Substance	binding [1]	Kd [2] [nM]
GGGGGCUUGUCGUAGUUGACAGCAGGUUCAAUCUGAACCUCAGUUAGCCGAAUUUGGCUACCUAACAAUGCUCCCAAUCGGGGAGCUACGUAAGAACGGUUACACUCUCCCAUCAAUCGUAAUGGGUCUGAGGAGUAAUCAUUUUCGUUUAUAAAAUAAUUGGAGCUCUGGUCUC [S10-UTR RNA]	binds	–
GGGGCUUAACGUCGCGUAAAUUGUUUAACACUUUGCGUAACGUACACUGGGAUCGCUGAAUUAGAGAUCGGCGUCCUUUCAUUCUAUAUACUUUGGAGUUUUAAAAUGUCUCUAAGUACUGAAGCAACAGCUAAAAUCGUUUCUGAG [rpsO-UTR RNA]	no binding	–
tnaC-tnaA transcribed spacer RNA (gel shift)	–	2100
